Reference: patent publication US20050214302A1, “Use of emmprin antagonists for the treatment of diseases associated with excessive angiogenesis” (priority 2004, published 2005)

Legend:
[1] = tested on: HMVEC-L cells; assay: Recombinant EMMPRIN stimulation of MMP-1 production by HMVEC-L cells (MMP-1 activity kit); format: cell-based, human
Experimental: HMVEC-L cells were obtained from Clonetics, Walkersville, Md. (Cat# CC-2527, Lot# 8F1528). HMVEC-L cells were cultured under conditions recommended by the supplier. Briefly, cells were cultured in Endothelium Cell Growth Medium MV (EGM-2 MV, Clonetics, Cat#CC-3202) containing human epithelial growth factor (hEGF), hydrocortisone, human basic fibroblast growth factor (hFGF-B), vascular endothelial growth factor (VEGF), human insulin-like growth factor-1 (hIGF-1), ascorbic acid, gentamicin, 5% FBS, at 37° C., 5% CO2.
Early passage cells (less than passage 3) were trypsinized and washed with RPMI-1640 once. Cells were resuspended in Dilution Medium (DM−Fibroblast Basic Medium+2% FBS) at a concentration of 5×100,000 cells/ml. 100 μl of the cell suspension containing 50,000 cells was added into each well in a 96 well cell culture plate. […]
Quantitative detection of MMP-1 activity in the conditioned medium was carried out using Human MMP-1 Activity Kit (R&D Systems, Minneapolis, Minn.) (Cat#F1M00). […] MMP substrate added into each well was cleaved by active MMP-1 and the resulting fluorescence was determined using SpectraFluor Plus Plate Reader (TECAN, Zurich, Switzerland) (Cat# F129005, Ser# 94747) with the following parameters: excitation wavelength at 320 nm and emission wavelength at 405 nm.

[2] = tested on: NHLF cells; assay: Recombinant EMMPRIN stimulation of MMP-1 production by NHLF cells; format: cell-based, human; details: same treatment (20 μg/ml EMMPRIN)
[3] = tested on: angiogenesis in Matrigel plugs; assay: Matrigel plug angiogenesis assay in vivo; details: suboptimal doses of FGF or VEGF, mice, expected
From the text: The role of EMMPRIN in angiogenesis will be directly investigated in vivo using Matrigel plug assays. Matrigel is a solubilized basement membrane preparation extracted from the Engel-Holm-Swarm (EHS) mouse sarcoma, a tumor rich in extracellular matrix proteins. The major component is laminin, but Matrigel also contains trace amounts of fibroblast growth factor, TGF-beta, tissue plasminogen activator, and other growth factors that occur naturally in the EHS tumor. Matrigel is the basis for several types of tumor cell invasion assays and provides the necessary substrate for the study of angiogenesis. Matrigel forms a soft gel plug when injected subcutaneously into mice or rats and supports an intense vascular response when supplemented with angiogenic factors.
Matrigel plugs containing suboptimal doses of angiogenic growth factors, such as basic fibroblast growth factor (FGF), or vascular endothelial cell growth factor (VEGF) can be implanted into mice to induce angiogenesis in vivo. Some of these plugs are supplemented with various doses of recombinant EMMPRIN.

B1: recombinant EMMPRIN: recombinant protein corresponding to the extracellular domain of human EMMPRIN, produced in NSO cells (R&D Systems) (protein, UniProt P35613 138-323, looked up)
extracellular domain: EPGTVFTTVEDLGSKILLTCSLNDSATEVTGHRWLKGGVVLKEDALPGQKTEFKVDSDDQWGEYSCVFLPEPMGTANIQLHGPPRVKAVKSSEHINEGETAMLVCKSESVPPVTDWAWYKITDSEDKALMNGSESRFFVSSSQGRSELHIENLNMEADPGQYRCNGTSSKGSDQAIITLRVRSHLA
modifications: extracellular domain
Q: Which “Stimulation of MMP-1 production in endothelial cells (result in words)” value ([1]; 0.08-20 μg/ml EMMPRIN, 1 day and 3 days, FIG. 2) does the source give for B1 here?
A: The value was “dose-dependently stimulated MMP-1 production”.

Q: What about the “MMP-1 produced by HMVEC-L cells” value ([1]; treated with 20 μg/ml EMMPRIN) of the same molecule?
A: The value was “approximately 40 ng/ml”.

Q: What about the “MMP-1 produced by NHLF cells relative to HMVEC-L” value [2] of the same molecule?
A: The value was “only half of that amount”.

Q: And the “Angiogenesis in Matrigel plugs supplemented with recombinant EMMPRIN” value [3]?
A: The value was “increase in angiogenesis”.
